Test results reported in article PMC7665024, “Anti-apoptotic BCL-2 regulation by changes in dynamics of its long unstructured loop” (Communications Biology, 2020).

Experiments:
[1] = test system: trypsin; assay: Limited proteolysis by trypsin; conditions: BCL-2 20 μM, trypsin 0.04-9.44 μM, 1 h, room temperature, SDS-PAGE
Method: Fig. 3 Structural differences between WT and EEE. a An illustration of mutation sites prepared for spin-labeling ESR studies. b Distance distributions of various double-spin-labeled BCL-2 (WT or EEE) mutants are determined from the experimental DEER data. […] As highlighted, the displacements of α1 and α2 account for the major differences. d An illustration highlighting the positions of α2–α7 and the binding groove. Structures of WT and EEE are colored as in c. Helices α4–α7 change little between the WT and EEE. The displacement of α2 is critical to the change in the local environment of the binding groove. e Limited proteolysis of BCL-2 (20 μM) analyzed on SDS–PAGE. Trypsin concentrations were 0.04, 0.11, 0.34, 1.03, 3.11, 9.44 μM. Incubation time was 1 h at room temperature. It confirms that tertiary conformations of WT versus EEE are indeed different.
BCL-2 conformational change was assessed by limited proteolysis using trypsin (MERCK). In brief, 5 µg BCL-2 (WT or EEE) was digested at enzyme/substrate ratios ranging from 1:2 to 1:461 for 1 h at room temperature. Proteolysis was quenched by adding 1 mM PMSF, and then samples were confirmed by SDS–PAGE with Coomassie blue staining.

[2] = test system: BAX-induced MOMP, isolated mitochondria; assay: In vitro cytochrome c release assay, isolated mitochondria (BCL-2 mutants); format: biochemical, mouse; conditions: Bax+BimBH3 = 100, mean of n = 6
From the text: To verify this implication, we performed in vitro cytochrome c release assay using isolated mitochondria. […] Lane 3 (Fig. 2a) is a positive control for the cytochrome c release assays. […] (More experimental results in support of the observed BCL-2 activity are given in Supplementary Fig. 3.)
Fig. 2 In vitro assays for evaluating BCL-2 activity. a Cytochrome c release assay with various BCL-2 mutants at varying concentrations. All of the release amounts are normalized to the result caused by the BimBH3-induced BAX activation (lane 3). […] GUVs provide a MOM-like environment devoid of endogenous mitochondrial proteins.
A Dounce homogenizer was used with 20 strokes to homogenize mouse liver tissue (0.2 mg). The mitochondria fraction was separated using centrifugation according to the Mitochondria Isolation Kit (Thermo Scientific). Mitochondria Assay Buffer A (MAB A) (200 mM mannitol, 68 mM sucrose, 10 mM HEPES, 110 mM KCl, 1 mM EDTA, […], 0.1% BSA, protease inhibitor) was used to wash the mitochondria fraction, followed by centrifugation at 12,000 × g. The pellet was collected and resuspended using enough MAB B (i.e., MBA A without 0.1% BSA) and then quantified by bradford assay (Bio-Rad) to yield a final protein content of the mitochondrial fraction ~3 mg/mL. The final mitochondria fraction was placed on ice for further downstream processing or stored at −80 °C with additional 300 mM trehalose for future use[38]. […] The mixture was then incubated with BAX (0.1 μM) and 10 μL of the mitochondrial fraction ([…]) for 0.5 h at 37 °C. Final volume was adjusted to 30 μL. Following centrifugation at 12,000×g for 10 min, the supernatant was subjected to subsequent immunoblotting (IB). Quantification of IB was done using ImageJ software (version 1.49, NIH). The fraction of cytochrome c released (%) is calculated by (I–I0)/(Imax–I0)×100%, where Imax and I0 are the analyzed intensities of cytochrome c with and without activated BAX, respectively.
Samples were resolved by SDS–PAGE (15%) and electroblotted onto a 0.45 μm PVDF membrane (GE Healthcare). Primary antibodies used in this study included rabbit anti-BAX N20 (Santa Cruz Biotechnology), mouse anti-BCL-2(C2) (Santa Cruz Biotechnology) and mouse anti-cytochrome c antibodies (clone 7H8.2C12, Millipore). Detection was achieved using sheep anti-mouse IgG HRP (GE Healthcare) and donkey anti-rabbit IgG HRP (GE Healthcare) secondary antibodies. Proteins were visualized by 4CN Plus Chromogenic Substrate (PerkinElmer).

[3] = test system: BCL-2 EEE (T69E/S70E/S87E; EEE-PB); assay: FRET association with Pacific Blue-labeled BCL-2 EEE; conditions: Fig. 1d
[4] = test system: BAX; assay: FRAP-GUV pore-forming activity of BAX, 70-kDa F-dextran; format: biochemical, mouse; parameters: FRAP pore-forming activity / FRAP pore-forming activity, average / p (FRAP-70k-p), Average: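 unitless ratio D/D0 relative to diffusion coefficient after Triton X-100 disruption of GUVs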
Method: (§1) Briefly, GUVs were incubated with the proteins of interest over a period of time (Fig. 2c), followed by photobleaching within individual GUVs. A series of fluorescent images were collected over time after the photobleaching and then analyzed to yield the diffusion coefficients of Fluor molecules (including FITC-labeled 70-kDa, and Alexa-647-labeled 10-kDa probes) using the theoretical approach detailed in the “Methods” section. As Fluor molecules are homogeneously dispersed in the solution (outside and inside of GUVs) before the incubation with BAX and activators, it is reasonable to expect that the larger the induced pore area on the surface of a GUV, the greater the diffusion coefficient. Thus, the diffusion coefficient is directly related to the pore-forming activity of activated BAX. As the pore-forming activity is proportional to the concentration of BAX[18], we fixed the total amount of added BAX in all of the measurements below (see the “Methods” section).
(§2) Full-length BAX and variants were prepared as previously described[18],[22],[35]. Mouse BAX was cloned into pTYB1 vector (New England Biolabs, Inc.), resulting pTYB1-BAX construct. The pTYB1-BAX construct encoding a fusion protein of BAX with chitin-binding peptide was separated by a self-cleavable intein tag to obtain a full-length BAX. Wild-type BAX has two native cysteine residues at 62 and 126. Cysteine-free construct (C62S/C126S) was used to prepare single-cysteine BAX variants for conjugating fluorescence probes (e.g., BAX136C in Fig. 1d). Point mutations of recombinant BAX were generated using a QuikChange mutagenesis kit. Proteins were expressed in E. coli (ER2566) strain (New England Biolabs, Inc.) and purified without detergent. Bacterial cultures were grown at 37 °C in LB medium containing 0.1 g/L ampicillin to reach an OD600 of 1.0. BAX expression was induced by addition of 0.3 mM IPTG at 30 °C for 6−8 h. The cells were harvested by centrifugation and resuspended in ice-cold lysis buffer (20 mM Tris–HCl, pH 7.0, 500 mM NaCl and 1 mM PMSF). The resuspended pellet was sonicated on ice for 30 min, followed by centrifugation at 12,800 × g for 50 min. […] The resins were incubated in a pre-equilibrated buffer (20 mM sodium phosphate, pH 8.0, 100 mM NaCl, 60 mM dithiothreitol (DTT)) for 48 h. Proteins were eluted from column and further purified by a SEC using a HiLoad 16/60 Superdex 75 column (GE Healthcare) pre-equilibrated in PB buffer (20 mM sodium phosphate, pH 7.4, 100 mM NaCl). Purified proteins were confirmed by SDS–PAGE with Coomassie blue staining. Protein concentration was determined using absorption spectroscopy at 280 nm.
(§3) All lipids used were purchased from Avanti Polar Lipids. […] Texas Red 1,2-dihexadecanoyl-sn-glycero-3-phosphoethanolamine (TR-DPPE) (Invitrogen) of 0.05% was added to the lipid mixture for virtualization of GUV[18],[26],[27]. GUVs were prepared with the gel-assisted swelling on a polyvinyl alcohol (PVA) gel[39]. A 5% (w/w) solution of PVA (MW 145,000) was prepared by stirring PVA in ddH2O while heating at 90 °C. PVA solution was spread on a microscope coverslip (18 × 18 mm, Matsunami, Japan) and then dried at 50 °C. Lipid mixture (1 mg/mL) dissolved in chloroform were spread on the dry PVA film and placed under vacuum for 30 min to evaporate the solvent. Lipids were rehydrated for 1 h in PB buffer. The resulting GUVs were transferred to an Eppendorf tube using blunt tips.
(§4) FRAP measurements were performed as described previously. […] All reactions were at room temperature and the final volume was 200 μL.

[5] = test system: BAX; assay: FRAP-GUV pore-forming activity of BAX, 10-kDa F-dextran; format: biochemical, mouse; parameters: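 unitless ratio D/D0 relative to diffusion coefficient after Triton X-100 disruption of GUVs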; conditions: 10 kDa F-dextran
Method: as §1, §2, §3, §4

With “WT: TM-truncated wild-type human BCL-2 (BCL-2-ΔTM, residues 1–217, C-terminal His6-tag)” the “susceptibility to trypsin proteolysis (in words)” value [1] was “susceptible to proteolysis and rapidly degraded to fragments”, the “Cytochrome c release, Average” value ([2]; BAX+BimBH3 + 2uM BCL-2 protein) was 77.3682 and the “Cytochrome c release, Average” value ([2]; BAX+BimBH3 + 4uM BCL-2 protein) was 50.0022. The “Cytochrome c release, Average” value ([2]; BAX+BimBH3 + 6uM BCL-2 protein) was 21.4104.

“S70E: less potent phosphomimetic mutant S70E of TM-truncated BCL-2” was tested, and the “Cytochrome c release, Average” value ([2]; BAX+BimBH3 + 2uM BCL-2 protein) was 76.6421, the “Cytochrome c release, Average” value ([2]; BAX+BimBH3 + 4uM BCL-2 protein) was 24.3731 and the “Cytochrome c release, Average” value ([2]; BAX+BimBH3 + 6uM BCL-2 protein) was 15.7119.

With “BimBH3-AL488: BimBH3 peptide labeled with Alexa Fluor 488 at C-terminal cysteine (FRET acceptor)” the “molecular association with EEE compared with S70E or WT (in words)” value [3] was “associated with EEE-PB more potently than with S70E-PB or WT-PB”.

B1: EEE-PB: EEE labeled with Pacific Blue (FRET donor) (conjugate)
chain: MAHAGRTGYDNREIVMKYIHYKLSQRGYEWDAGDVGAAPPGAAPAPGIFSSQPGHTPHPAASRDPVAREEPLQTPAAPGAAAGPALEPVPPVVHLTLRQAGDDFSRRYRRDFAEMSSQLHLTPFTARGRFATVVEELFRDGVNWGRIVAFFEFGGVMCVESVNREMSPLVDNIALWMTEYLNRHLHTWIQDNGGWDAFVELYGPSMRPLFDFSWLSL
modifications: Pacific Blue (maleimide) on the native cysteine 158; left off: His6, C-terminal, state not stated
With B1 the “pore-forming activity / effect on BAX-induced membrane pores on GUV (in words)” value ([4]; 10- and 70-kDa F-dextran, BAX 1 µM, BimBH3 2 µM, BCL-2 1 µM, ABT-199 30 µM, room temperature, Fig. 2c) was “The ability of EEE to sequester BimBH3 is similar to that of EEE-PB”, the “FRAP pore-forming activity, average” value ([4]; 70 kDa F-dextran, mean of trials) was 0.000389 and the FRAP pore-forming activity ([4]; 70 kDa F-dextran, trial1) was 0.00033. It also gave an FRAP pore-forming activity ([4]; 70 kDa F-dextran, trial2) of 0.000165, an FRAP pore-forming activity ([4]; 70 kDa F-dextran, trial3) of 0.000165 and an FRAP pore-forming activity ([4]; 70 kDa F-dextran, trial4) of 0.00033. The FRAP pore-forming activity ([4]; 70 kDa F-dextran, trial5) was 0.00033, the FRAP pore-forming activity ([4]; 70 kDa F-dextran, trial6) was 0.000165 and the FRAP pore-forming activity ([4]; 70 kDa F-dextran, trial7) was 0.00033. For the same molecule, the FRAP pore-forming activity ([4]; 70 kDa F-dextran, trial8) was 0.0006601, the FRAP pore-forming activity ([4]; 70 kDa F-dextran, trial9) was 0.0008251 and the FRAP pore-forming activity ([4]; 70 kDa F-dextran, trial10) was 0.000495. The FRAP pore-forming activity ([4]; 70 kDa F-dextran, trial11) was 0.000495, the FRAP pore-forming activity ([4]; 70 kDa F-dextran, trial12) was 0.00033 and the FRAP pore-forming activity ([4]; 70 kDa F-dextran, trial13) was 0.00033. The FRAP pore-forming activity ([4]; 70 kDa F-dextran, trial14) was 0.000495, the “FRAP pore-forming activity, average” value ([5]; mean of trials) was 0.001441 and the FRAP pore-forming activity ([5]; trial1) was 0.0008772. It also gave an FRAP pore-forming activity ([5]; trial2) of 0.0007018, an FRAP pore-forming activity ([5]; trial3) of 0.0003509 and an FRAP pore-forming activity ([5]; trial4) of 0.0008772. For the same molecule, the FRAP pore-forming activity ([5]; trial5) was 0.001228, the FRAP pore-forming activity ([5]; trial6) was 0.0007018 and the FRAP pore-forming activity ([5]; trial7) was 0.001228. It also gave an FRAP pore-forming activity ([5]; trial8) of 0.002456, an FRAP pore-forming activity ([5]; trial9) of 0.002807 and an FRAP pore-forming activity ([5]; trial10) of 0.001579. For the same molecule, the FRAP pore-forming activity ([5]; trial11) was 0.002105, the FRAP pore-forming activity ([5]; trial12) was 0.001404 and the FRAP pore-forming activity ([5]; trial13) was 0.001579. The FRAP pore-forming activity ([5]; trial14) was 0.002281.
